Measurements taken from the supplement of paper PMC9170038.

Assays:
Settings in all cases: FMN input: 0 or 200 uM; Eterna round: R93 (includes R88 designs)
MS2 coat protein [1] = assay: apparent KD of MS2 coat protein, switch ON state; designed switch direction (-1 OFF switch, 1 ON switch): 1; higher = weaker reporter binding
Method in brief: (§1)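 For every design, apparent KD is the median of normalised binding-curve fits from its clusters. The RNA switches were transcribed on-chip from Illumina sequencing clusters and titrated with SNAP-549-labelled MS2 coat protein (twofold steps, 0.7 or 1.5 nM to 3 µM; 0.8–1.5 h to 10–20 min per step). Titrations used 100 mM Tris-HCl pH 7.5, 80 mM KCl, 4 mM MgCl2, without or with constant ligand.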

MS2 coat protein [2] = assay: apparent KD of MS2 coat protein, switch OFF state (with FMN for OFF switches, without FMN for ON switches); designed switch direction (-1 OFF switch, 1 ON switch): 1; higher = weaker reporter binding
Method in brief: as §1

MS2 coat protein [3] = assay: apparent KD of MS2 coat protein, switch ON state; designed switch direction (-1 OFF switch, 1 ON switch): -1; higher = weaker reporter binding
Method in brief: as §1

MS2 coat protein [4] = assay: apparent KD of MS2 coat protein, switch OFF state (with FMN for OFF switches, without FMN for ON switches); designed switch direction (-1 OFF switch, 1 ON switch): -1; higher = weaker reporter binding
Method in brief: as §1

Sequence | apparent KD of MS2 coat protein (MS2 coat protein [1]) [nM] | apparent KD of MS2 coat protein (MS2 coat protein [2]) [nM] | apparent KD of MS2 coat protein (MS2 coat protein [3]) [nM] | apparent KD of MS2 coat protein (MS2 coat protein [4]) [nM]
GAUGACAUAGUACAGGAUAUAUGAAUAGUCACAUGAGGAUCACCCAUGUGCAUUUAUAUGCGCACAUAGAAGGGUGGUAGUGAUC [Mat - Same state - Malcolm Mod - D126] | 79.9 | 49.8 |  | 
CACAGAGUGGCGUAGGAUAUGUACAUGAGUACAUGAGGAUCACCCAUGUGGGCGUGAAAUUACGAGCAGAAGGGCGUCGCCUGUG [Edradi] | 24.4 | 135 |  | 
UAAUAAUAAACCAAGGAUAUGGAGUAUAGAACAUGAGGAUCACCCAUGUGUAGCGUGGAAUAGUACCAGAAGGUGGAGUGAAAUG [JR_SS002_Sub1002] | 39.1 | 49.8 |  | 
GUAGACAUAGUUCAGGAUAUAUGAAUAGUCACAUGAGGAUCACCCAUGUCCAUUUAUAUGGGCACAUAGAAGGGAGGUAGUUAAC [Mat - Same state - Malcolm Mod - D123] | 891 | 1140 |  | 
UAUUAUUACACGAAGGAUAUCGAUAAUAGUACAUGAGGAUCACCCAUGUUCAAAUCAUUUUAGUACGAGAAGGUCGAGGGUAAAG [JR_SS002_Sub710] | 19.4 | 23.4 |  | 
AAGAAACAUGAGGAUCACCCAUGUAAGAUAAACACAGGAUAUGCGAAAAUAAACAAAUAAGCAGAAGGGUGAAGAA [Mat - Same State 1 - Tesla mod - 65] | 19.5 | 28.1 |  | 
AAAUAAAGGACUGAGGAUAUACCACAUGAAACAUGAGGAUCACCCAUGUAGAAAUACAAGCGGUGGUAGAAGGCAGUCCACAAAC [Same State 2.5i ( so lets mod hyphema)] | 21.2 | 20.4 |  | 
AGAAAACAUGAGGAUCACCCAUGUAGAAAUAUGGGAGGAUAUACAAAGACGAAAGUCAAAGUAGAAGGCCUGAAGA [Mat - Same State 1 - JL mod - D92] | 20.4 | 75 |  | 
AAGAAGGUAGGAUAUACAUGAGGAUCACCCAUGUAAAAGAAAGAAAAGGGAAAGAAAAGUAGAAGGACCAAGAA [Kheperkheperure Ay] |  |  | 32.9 | 44.3
CAAAGGUGAGGAUAUGCAUAACUAUGACGAAAGUCAUAAACACAUGAGGAUCACCCAUGUAGAAGGCGCCACAA [e2-3] |  |  | 78.8 | 57.2
AUAAAACAUGAGGAUCACCCAUGUGAGGAUAUGCGAAAUAAUGAAUAAAGAAAUAAAAGCAGAAGGCACAAAAA [LROPPY Exclusion 1 - v05_deltaG=1.64 break up some As mixed] |  |  | 32.8 | 28.9
AUAGGCCUAGGAUAUACAUGAGGAUCACCCAUGUAAACCGAUAGAUCACGGUAAACGAGUAGAAGGAGGAAUAA [JR_Exc003_Sub208] |  |  | 26.5 | 30.3
AACUGACAUGAGGAUCACCCAUGUCAGGAUAUGACUUCAAAAAAAAAAAAAAAUGAUGUCAGAAGGGACAUGGA [Design 64: Sub-opt MB] |  |  | 19.2 | 20.7
AAAAAACAUGAGGAUCACCCAUGUAAGGAUAUCUAAAAUAAAAGAAAAAUAAAGAAAAGGAGAAGGUAUAUGAA [JL wbt mod 20] |  |  | 19.8 | 25.7
GAAAAACAUGAGGAUCACCCAUGUCAGGAUAUGCAGAAAAAGAAAAAAAGAAAAGAAAGUAGAAGGGACAAAAG [Mat - Same state - Mayanna Mod - D106] |  |  | 29.4 | 28.6
AGCUAGCUAGGAUAUACGAACAUGUCAAAAGACGUGAAGGGACAUGAGGAUCACCCAUGUAGAAGGAGCUAGCA [JL 74% mod 6] |  |  | 28.7 | 121
GAAAACAUAGGAUAUACAUGAGGAUCACCCAUGUUAAAAUAAAGAAAGGGAGAAAUAAGUAGAAGGAUGAAAAA [Mat - Mod of Meechl] |  |  | 25.6 | 29.8

Sequence | apparent KD of MS2 coat protein (MS2 coat protein [1]) [nM] | apparent KD of MS2 coat protein (MS2 coat protein [2]) [nM] | apparent KD of MS2 coat protein (MS2 coat protein [3]) [nM] | apparent KD of MS2 coat protein (MS2 coat protein [4]) [nM]
AAAAAUGGAGGAUAUACGAACAUGUCAAAAGACGUGAAGGGACAUGAGGAUCACCCAUGUAGAAGGCUAAAAAA [JL Stem Breaker 3] |  |  | 87.1 | 40.3
AAGGAGUGAGGAUAUCGGAAAGGACACGAAAGUGACAAAGACGAGAAGGCACAUGAGGAUCACCCAUGUAAAAA [milkweed 22] |  |  | 38.7 | 34.6
AACAUACAUGAGGAUCACCCAUGUUAGGAUAUGCCGGGUUAGAGCCAACUAAAAAACCGUAGAAGGGACGAAAA [Bilbo Confounded 10 - Jieux - Exclusion 1] |  |  | 30.7 | 28.2
AGUUGGCGAGGAUAUACAUGAGGAUCACCCAUGUGAGAGAUAAAAGUGAGAAAGAAAAGUAGAAGGCGCUCACA [JL Lego Mod 15] |  |  | 107 | 60.1
AAGGGACAUGAGGAUCACCCAUGUCAGGAUAUGCUAUGGAAAAUAAAAAUAAAACAUAGCAGAAGGGACAAAAA [Denovo 4] |  |  | 38.5 | 53.1
GGUUGAUGAGGAUAUACAUGAGGAUCACCCAUGUGAGAGAAAAAAGUGAGAAAGAAAAGUAGAAGGCAUUGACG [salish99-ex3-60] |  |  | 37.7 | 69.4
AAAAGGUGAGGAUAUUCGAAAAUAAAAUAAAAUAAAAUAAAGAAGAAGGCACAUGAGGAUCACCCAUGUAAUAA [LROPPY Exclusion 4 - v02_deltaG=2.94 break up the As] |  |  | 25.9 | 24.9
AAAAAGUCAGGAUAUACGUACAUGUCAAAAGACGUGAAGGGACAUGAGGAUCACCCAUGUAGAAGGGACAAGAA [JL Stem Breaker 21] |  |  | 106 | 49.6
AAAAAGUGAGGAUAUAGCAAAGGUCACGAAAGUGACAAAGGCUAGAAGGCACAUGAGGAUCACCCAUGUCCAAA [Fiskers Exclusion 4 D2 63% 2] |  |  | 24.7 | 55.6
GGAAAACAUGAGGAUCACCCAUGUGAGGAUAUGCAGGAUAUAGAAGGAAAAAAAAAAAGCAGAAGGUACGAAGG [salish99-ex1-17] |  |  | 22.3 | 36.3
AACAAGACAGGAUAUACAUGAGGAUCACCCAUGUCACAAUAAAGCAGCGUAACACAAAGUAGAAGGGUCAUGGA [Ruby 9] |  |  | 83.3 | 71.5
AACAUGUGAGGAUAUAAAAGAAAAGAAAAGAAAGAAAAGAAUUAGAAGGCACAUGAGGAUCACCCAUGUAAGAA [EteRNA is fun!] |  |  | 28.2 | 31.9
AAACAACAUGAGGAUCACCCAUGUUAGGAUAUGAACGAAAAUAAAUAAAAAUAAAAGUUCAGAAGGGACAAAAA [66%, Wbt, 20] |  |  | 23 | 28.2
AAAAAACAUGAGGAUCACCCAUGUGAGGAUAUCCAAAAGUUAAAGAAAAAGACGAAAAGGAGAAGGCGCAAAAA [Fiskers Exclusion D3] |  |  | 68.7 | 40.7
CUCUUGUCAGGAUAUUCAAGAAAAGAAGAGAAAGAAAAGAAGAAGAAGGGACAUGAGGAUCACCCAUGUAAGAA [EteRNA is fun!] |  |  | 52.4 | 67.2
AAAAAGUCAGGAUAUGCGAAGGCGUCUGAUAGACGAGGCUAGCAGAAGGGACAUGAGGAUCACCCAUGUGAAGA [Mat - Exclusion 4 - Eli mod - D84] |  |  | 49.8 | 97.5
